According to US20180355043A1:

Key:
[1] = target: DR4G99: Human HLA-DRA1*01:02/DRB1*01:01 ECD with collagen peptide CII_1236-1249 (human); assay: MSD ECL; antigen coated; mAb 0.2 µg/ml
[2] = target: DR4G99: Human HLA-DRA1*01:02/DRB1*01:01 ECD with collagen peptide CII_1236-1249 (human); assay: MSD ECL; antigen coated; protocol of Example 3

ECL signal [1]: 15500 ECL
ECL signal [2]: 697 ECL
B1: DR4B4 (antibody, V domains shown)
VH: QVQLKESGPGLVAPSQSLSITCTISGFSLTSYGVHWVRQPPGKGLEWLVVIWSDGSTTYNSALKSRLSISKDNSKSQVFLKMNSLQTDDTAIYYCASHYGSTLAFASWGHGTLVTVSA
VL: DIQMTQSPASLSASVGETVTIICRASVNIYSYLAWYQQKQGKSPQLLVYNAKILAEGVPSRFSGSGSGTQFSLKINSLQPEDFGSYYCQHHYGPFTFGSGTKLEIK
